Assay [1] concerns the target T1, FcγRIa extracellular domain with C-terminal His tag (human, UniProt P12314 16-292).
T1 construct: extracellular domain; Expressed in FreeStyle293 cells; analyte in the SPR assay; also called FcgRI; 1a
As to the kind of experiment: SPR (Biacore), relative binding, HeCon Ab = 100.

Assay [2] concerns the target T2, FcγRIIb extracellular domain with C-terminal His tag (human, UniProt P31994 43-217).
T2 construct: extracellular domain; Expressed in FreeStyle293 cells; analyte in the SPR assay; also called FcgRIIb; 2b
T2 sequence (looked up): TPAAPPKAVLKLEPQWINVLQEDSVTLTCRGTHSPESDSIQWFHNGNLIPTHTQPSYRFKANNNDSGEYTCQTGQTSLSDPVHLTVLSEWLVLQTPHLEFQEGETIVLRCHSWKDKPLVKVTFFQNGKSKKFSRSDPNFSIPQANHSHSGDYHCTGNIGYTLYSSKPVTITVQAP
As to the kind of experiment: SPR (Biacore), relative binding, HeCon Ab = 100. On the technique in general: SPR reads the build-up and loss of mass on a sensor chip optically.

For assay [3], the target named is T3, FcγRIIa R (FcγRIIa allotype with Arg at position 131), extracellular domain with C-terminal His tag (human, UniProt P12318 34-217).
T3 construct: extracellular domain; made in FreeStyle293 cells; analyte in the Biacore assay; also called FcγRIIa type R; 2aR
T3 sequence (looked up): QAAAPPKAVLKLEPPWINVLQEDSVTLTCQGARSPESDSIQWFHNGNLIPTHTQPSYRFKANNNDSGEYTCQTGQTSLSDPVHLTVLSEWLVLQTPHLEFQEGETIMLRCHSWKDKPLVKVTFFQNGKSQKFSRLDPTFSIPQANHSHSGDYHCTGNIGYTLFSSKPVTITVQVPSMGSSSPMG
As to the kind of experiment: SPR (Biacore), antibody captured, FcγR analyte; vs GpH7-A5/GpH7-B3/GpL16-k0 = 100. As to the method: (§1) The heterodimerized antibodies He Abs in which one of the H chains was introduced with an alteration were assayed for their binding activities to each activating FcγR and inhibitory FcγR according to the method described in Example 4. […] The activating FcγRs in FIGS. 26, 27, 28, and 29 are FcγRIa, FcγRIIa (R), FcγRIIa (H), and FcγRIIIa, respectively.
(§2) Analysis of interaction between objective antibody and the FcγR was carried out using Biacore T100 (GE Healthcare). HBS-EP+ (GE Healthcare) was used as the running buffer, and the measurement temperature was set to 25° C. Chips produced by immobilizing the antigen peptide by the amine coupling method to a Series S Sencor Chip CM5 (GE Healthcare), or alternatively, chips produced by allowing preliminarily biotinylated antigen peptides to interact with and immobilize onto a Series S Sensor Chip SA (certified) (GE Healthcare) were used. Antibodies of interest were captured onto an antigen peptide-immobilized chip, and allowed to interact to each FcγR diluted with running buffer. To regenerate and repeatedly use the chip, the antibodies captured on the chip were washed off by reacting 10 mM glycine-HCl, pH 1.5.

Assay [4] has as its target T4, FcγRIIb, extracellular domain with C-terminal His tag (human, UniProt P31994 43-217).
T4 construct: extracellular domain; made in FreeStyle293 cells; analyte in the Biacore assay; also called 2b; FcgRIIb
T4 sequence (looked up): T2 sequence (looked up)
The description is as above. As to the method: as §1, §2

These results are taken from US20150344570A1 (published 2015).

T1 sequence (P12314 16-292): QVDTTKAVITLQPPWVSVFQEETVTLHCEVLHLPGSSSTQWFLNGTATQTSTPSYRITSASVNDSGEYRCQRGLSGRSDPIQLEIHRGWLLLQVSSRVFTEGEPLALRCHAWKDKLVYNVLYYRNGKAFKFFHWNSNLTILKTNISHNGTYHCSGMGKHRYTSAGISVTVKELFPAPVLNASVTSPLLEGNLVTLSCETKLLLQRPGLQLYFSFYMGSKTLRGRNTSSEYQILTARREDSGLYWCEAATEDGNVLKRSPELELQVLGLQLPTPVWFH

B1: GpH7-A5/GpH7-B3 variant P271_16H/GpL16-k0 (He Ab) (antibody, human IgG1, kappa)
heavy 1: not shown
heavy 2: not shown
light: DIVMTQSPLSLPVTPGEPASISCQASESLVHSNRNTYLHWYLQKPGQSPQLLIYKVSNRFSGVPDRFSGSGSGTDFTLKISRVEAEDVGVYYCSQNTHVPPTFGQGTKVEIERTVAAPSVFIFPPSDEQLKSGTASVVCLLNNFYPREAKVQWKVDNALQSGNSQESVTEQDSKDSTYSLSSTLTLSKADYEKHKVYACEVTHQGLSSPVTKSFNRGEC
notes: He Ab: mutation in one H chain only
Turning to B1, in assay [1], the He/Con_1a is 102 % of HeCon Ab (=100). Besides, in assay [2], the He/Con_2b is 67.9 % of HeCon Ab (=100).

B2: GpH7-A5/GpH7-B3 variant Q295_05P/GpL16-k0 (He Ab) (antibody, human IgG1, kappa)
heavy 1: not shown
heavy 2: not shown
light: B1 light
notes: as for B1
On to B2, for which the He/Con_1a in assay [1] is 103 % of HeCon Ab (=100). Besides, the He/Con_2b in assay [2] is 67.5 % of HeCon Ab (=100).

B3: GpH7-A5/GpH7-B3 variant P271_06M/GpL16-k0 (He Ab) (antibody, human IgG1, kappa)
heavy 1: not shown
heavy 2: not shown
light: B1 light
notes: as for B1
B3: the He/Con_1a in assay [1] was 102 % of HeCon Ab (=100). Also, the He/Con_2b in assay [2] was 77.5 % of HeCon Ab (=100).

B4: GpH7-A5/GpH7-B3 variant S267_16H/GpL16-k0 (He Ab) (antibody, human IgG1, kappa)
heavy 1: not shown
heavy 2: not shown
light: B1 light
notes: as for B1
As to B4, the He/Con_1a in assay [1] is 100 % of HeCon Ab (=100). In addition, the He/Con_2b in assay [2] is 65.9 % of HeCon Ab (=100).

B5: GpH7-A5/GpH7-B3 variant A330_12R/GpL16-k0 (antibody, human IgG1, kappa)
heavy 1: not shown
heavy 2: not shown
light: B1 light
notes: heterodimerized IgG1, mutation in one H chain only; also called He Ab
As for B5, the He/Con_2aR in assay [3] was 104 relative (HeCon Ab = 100). Besides, the He/Con_2b in assay [4] is 84.8 relative (HeCon Ab = 100).

B6: GpH7-A5/GpH7-B3 variant H268_14T/GpL16-k0 (He Ab) (antibody, human IgG1, kappa)
heavy 1: not shown
heavy 2: not shown
light: B1 light
notes: as for B1
For the molecule B6, the He/Con_1a in assay [1] is 112 % of HeCon Ab (=100). Also, the He/Con_2b in assay [2] is 86 % of HeCon Ab (=100).

B7: GpH7-A5/GpH7-B3 variant P271_03V/GpL16-k0 (He Ab) (antibody, human IgG1, kappa)
heavy 1: not shown
heavy 2: not shown
light: B1 light
notes: as for B1
As for B7, in assay [1], the He/Con_1a is 102 % of HeCon Ab (=100). The He/Con_2b in assay [2] is 74.8 % of HeCon Ab (=100).

B8: GpH7-A5/GpH7-B3 variant Q295_02A/GpL16-k0 (He Ab) (antibody, human IgG1, kappa)
heavy 1: not shown
heavy 2: not shown
light: B1 light
notes: as for B1
B8: the He/Con_1a in assay [1] is 104 % of HeCon Ab (=100). Also, the He/Con_2b in assay [2] was 79.7 % of HeCon Ab (=100).

B9: GpH7-A5/GpH7-B3 variant S239_14T/GpL16-k0 (He Ab) (antibody, human IgG1, kappa)
heavy 1: not shown
heavy 2: not shown
light: B1 light
notes: as for B1
Turning to B9, the He/Con_1a in assay [1] is 101 % of HeCon Ab (=100). The He/Con_2b in assay [2] is 97.3 % of HeCon Ab (=100).

B10: GpH7-A5/GpH7-B3 variant L234_15Y/GpL16-k0 (He Ab) (antibody, human IgG1, kappa)
heavy 1: not shown
heavy 2: not shown
light: B1 light
notes: as for B1
On to B10, for which the He/Con_1a in assay [1] is 100 % of HeCon Ab (=100). Further, in assay [2], the He/Con_2b was 96.3 % of HeCon Ab (=100).

B11: GpH7-A5/GpH7-B3 variant P271_02A/GpL16-k0 (He Ab) (antibody, human IgG1, kappa)
heavy 1: not shown
heavy 2: not shown
light: B1 light
notes: as for B1
For B11, the He/Con_1a in assay [1] was 104 % of HeCon Ab (=100). The He/Con_2b in assay [2] is 88 % of HeCon Ab (=100).

B12: GpH7-A5/GpH7-B3 variant V266_19Q/GpL16-k0 (He Ab) (antibody, human IgG1, kappa)
heavy 1: not shown
heavy 2: not shown
light: B1 light
notes: as for B1
Turning to B12, the He/Con_1a in assay [1] was 100 % of HeCon Ab (=100). The He/Con_2b in assay [2] was 89.2 % of HeCon Ab (=100).

B13: GpH7-A5/GpH7-B3 variant P271_15Y/GpL16-k0 (He Ab) (antibody, human IgG1, kappa)
heavy 1: not shown
heavy 2: not shown
light: B1 light
notes: as for B1
For the molecule B13, the He/Con_1a in assay [1] was 103 % of HeCon Ab (=100). Further, the He/Con_2b in assay [2] is 52.3 % of HeCon Ab (=100).

B14: GpH7-A5/GpH7-B3 variant P271_20W/GpL16-k0 (He Ab) (antibody, human IgG1, kappa)
heavy 1: not shown
heavy 2: not shown
light: B1 light
notes: as for B1
With B14, the He/Con_1a in assay [1] is 103 % of HeCon Ab (=100). Besides, in assay [2], the He/Con_2b is 58.1 % of HeCon Ab (=100).

B15: GpH7-A5/GpH7-B3 variant E333_07I/GpL16-k0 (antibody, human IgG1, kappa)
heavy 1: not shown
heavy 2: not shown
light: B1 light
notes: as for B5
B15: the He/Con_2aR in assay [3] is 104 relative (HeCon Ab = 100). The He/Con_2b in assay [4] was 96.2 relative (HeCon Ab = 100).

B16: GpH7-A5/GpH7-B3 variant Q295_07I/GpL16-k0 (He Ab) (antibody, human IgG1, kappa)
heavy 1: not shown
heavy 2: not shown
light: B1 light
notes: as for B1
As for B16, the He/Con_1a in assay [1] was 103 % of HeCon Ab (=100). Besides, in assay [2], the He/Con_2b is 84.3 % of HeCon Ab (=100).

B17: GpH7-A5/GpH7-B3 variant Q295_03V/GpL16-k0 (He Ab) (antibody, human IgG1, kappa)
heavy 1: not shown
heavy 2: not shown
light: B1 light
notes: as for B1
As to B17, the He/Con_1a in assay [1] was 104 % of HeCon Ab (=100). Besides, the He/Con_2b in assay [2] is 75.7 % of HeCon Ab (=100).

B18: GpH7-A5/GpH7-B3 variant A330_11K/GpL16-k0 (antibody, human IgG1, kappa)
heavy 1: not shown
heavy 2: not shown
light: B1 light
notes: as for B5
As for B18, the He/Con_2aR in assay [3] was 110 relative (HeCon Ab = 100). Besides, the He/Con_2b in assay [4] is 95 relative (HeCon Ab = 100).
